For data set [1], the target named is 20S proteasome (human (endogenous in red blood cells)) (UniProt P25786). Nature of the data set: negative stain electron microscopy.
Data set [2] concerns the molecule itself. Nature of the data set: negative stain electron microscopy.

Sequence of 20S proteasome (human (endogenous in red blood cells)) (P25786 whole entry, looked up): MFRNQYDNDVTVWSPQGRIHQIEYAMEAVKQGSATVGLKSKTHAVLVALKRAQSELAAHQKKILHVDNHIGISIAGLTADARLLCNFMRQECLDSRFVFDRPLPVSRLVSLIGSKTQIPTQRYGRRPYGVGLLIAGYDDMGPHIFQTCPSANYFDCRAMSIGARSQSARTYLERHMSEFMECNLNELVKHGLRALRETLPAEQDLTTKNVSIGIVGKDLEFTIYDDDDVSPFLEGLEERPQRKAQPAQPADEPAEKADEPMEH

For “19S regulatory cap of the proteasome (complex)”, the percent of the observed proteasomes that were singly-capped 26S in data set [1] came to 6%.

B1: peroxiredoxin PRDX2 (enzyme, human (endogenous in red blood cells), UniProt P32119 1-198, looked up)
chain: MASGNARIGKPAPDFKATAVVDGAFKEVKLSDYKGKYVVLFFYPLDFTFVCPTEIIAFSNRAEDFRKLGCEVLGVSVDSQFTHLAWINTPRKEGGLGPLNIPLLADVTRRLSEDYGVLKTDEGIAYRGLFIIDGKGVLRQITVNDLPVGRSVDEALRLVQAFQYTDEHGEVCPAGWKPGSDTIKPNVDDSKEYFSKHN
For B1, the “stoichiometry N” value in data set [2] stood at 10.

Source of the values: paper doi:10.1101/2021.12.10.472004 (bioRxiv, 2021).
